Molecular target: T1, HLA-A*02:01 (human)
T1 construct: the tested peptide takes its place; also called peptide-receptive MHC molecules; MHC class I
Assay: UV-ligand exchange, anti-β2m ELISA; grade of peptide exchange yield
Text: Candidate peptides for T cell based therapies according to the present invention were further tested for their MHC binding capacity (affinity). The individual peptide-MHC complexes were produced by UV-ligand exchange, where a UV-sensitive peptide is cleaved upon UV-irradiation, and exchanged with the peptide of interest as analyzed. Only peptide candidates that can effectively bind and stabilize the peptide-receptive MHC molecules prevent dissociation of the MHC complexes. To determine the yield of the exchange reaction, an ELISA was performed based on the detection of the light chain (β2m) of stabilized MHC complexes. The assay was performed as generally described in Rodenko et al. (Rodenko et al., 2006).
96 well MAXISorp plates (NUNC) were coated over night with 2 ug/ml streptavidin in PBS at room temperature, washed 4× and blocked for 1h at 37° C. in 2% BSA containing blocking buffer. Refolded HLA-A*02:01/MLA-001 monomers served as standards, covering the range of 15-500 ng/ml. Peptide-MHC monomers of the UV-exchange reaction were diluted 100 fold in blocking buffer. Samples were incubated for 1 h at 37° C., washed four times, incubated with 2 ug/ml HRP conjugated anti-β2m for 1h at 37° C., washed again and detected with TMB solution that is stopped with […]. Absorption was measured at 450 nm. […]

B1: SLTEQVHSL (SEQ ID NO: 141) (peptide)
peptide: SLTEQVHSL
  peptide exchange yield: 50 to 75%

From US20160368965A1 (IMMATICS BIOTECHNOLOGIES, published 2016)
